First the molecules themselves.
B1: CE115HA000 G65D one-arm antibody (antibody, human IgG1, kappa, L234A L235A, N297A, name in Kabat numbering)
heavy: QVQLVESGGGVVQPGRSLRLSCAASGFTFSNAWMHWVRQAPGKGLEWVAQIKAKSNNYATYYAESVKDRFTISRDDSKNSLYLQMNSLKTEDTAVYYCRYVHYGAYYGVDAWGQGTTVTVSSASTKGPSVFPLAPSSKSTSGGTAALGCLVKDYFPEPVTVSWNSGALTSGVHTFPAVLQSSGLYSLSSVVTVPSSSLGTQTYICNVNHKPSNTKVDKKVEPKSCDKTHTCPPCPAPEAAGGPSVFLFPPKPKDTLMISRTPEVTCVVVDVSHEDPEVKFNWYVDGVEVHNAKTKPREEQYASTYRVVSVLTVLHQDWLNGKEYKCKVSNKALPAPIEKTISKAKGQPREPQVYTLPPSRCELTKNQVSLSCAVKGFYPSDIAVEWESNGQPENNYKTTPPVLDSDGSFFLVSKLTVDKSRWQQGNVFSCSVMHEALHNHYTQKSLSLSPDYKDDDDK
chain: EPKSSDKTHTCPPCPAPELLGGPSVFLFPPKPKDTLMISRTPEVTCVVVDVSHEDPEVKFNWYVDGVEVHNAKTKPREEQYNSTYRVVSVLTVLHQDWLNGKEYKCKVSNKALPAPIEKTISKAKGQPREPQVCTLPPSRDELTKNQVSLWCLVKGFYPSDIAVEWESNGQPENNYKTTPPVLDSDGSFFLYSKLTVDKSRWQQGNVFSCSVMHEALHNRYTQKSLSLSP
light: DIVMTQSPLSLPVTPGEPASISCRSSQSLVHSNRNTYLHWYQQKPGQAPRLLIYKVSNRFSGVPDRFSGSGSGTDFTLKISRVEAEDVGVYYCGQGTQVPYTFGQGTKLEIKRTVAAPSVFIFPPSDEQLKSGTASVVCLLNNFYPREAKVQWKVDNALQSGNSQESVTEQDSKDSTYSLSSTLTLSKADYEKHKVYACEVTHQGLSSPVTKSFNRGEC
B2: CE115HA000 G65E one-arm antibody (antibody, human IgG1, kappa, L234A L235A, N297A, name in Kabat numbering)
heavy: QVQLVESGGGVVQPGRSLRLSCAASGFTFSNAWMHWVRQAPGKGLEWVAQIKAKSNNYATYYAESVKERFTISRDDSKNSLYLQMNSLKTEDTAVYYCRYVHYGAYYGVDAWGQGTTVTVSSASTKGPSVFPLAPSSKSTSGGTAALGCLVKDYFPEPVTVSWNSGALTSGVHTFPAVLQSSGLYSLSSVVTVPSSSLGTQTYICNVNHKPSNTKVDKKVEPKSCDKTHTCPPCPAPEAAGGPSVFLFPPKPKDTLMISRTPEVTCVVVDVSHEDPEVKFNWYVDGVEVHNAKTKPREEQYASTYRVVSVLTVLHQDWLNGKEYKCKVSNKALPAPIEKTISKAKGQPREPQVYTLPPSRCELTKNQVSLSCAVKGFYPSDIAVEWESNGQPENNYKTTPPVLDSDGSFFLVSKLTVDKSRWQQGNVFSCSVMHEALHNHYTQKSLSLSPDYKDDDDK
chain: EPKSSDKTHTCPPCPAPELLGGPSVFLFPPKPKDTLMISRTPEVTCVVVDVSHEDPEVKFNWYVDGVEVHNAKTKPREEQYNSTYRVVSVLTVLHQDWLNGKEYKCKVSNKALPAPIEKTISKAKGQPREPQVCTLPPSRDELTKNQVSLWCLVKGFYPSDIAVEWESNGQPENNYKTTPPVLDSDGSFFLYSKLTVDKSRWQQGNVFSCSVMHEALHNRYTQKSLSLSP
light: DIVMTQSPLSLPVTPGEPASISCRSSQSLVHSNRNTYLHWYQQKPGQAPRLLIYKVSNRFSGVPDRFSGSGSGTDFTLKISRVEAEDVGVYYCGQGTQVPYTFGQGTKLEIKRTVAAPSVFIFPPSDEQLKSGTASVVCLLNNFYPREAKVQWKVDNALQSGNSQESVTEQDSKDSTYSLSSTLTLSKADYEKHKVYACEVTHQGLSSPVTKSFNRGEC
B3: CE115HA000 G98K one-arm antibody (antibody, human IgG1, kappa, L234A L235A, N297A, name in Kabat numbering)
heavy: QVQLVESGGGVVQPGRSLRLSCAASGFTFSNAWMHWVRQAPGKGLEWVAQIKAKSNNYATYYAESVKGRFTISRDDSKNSLYLQMNSLKTEDTAVYYCRYVHYKAYYGVDAWGQGTTVTVSSASTKGPSVFPLAPSSKSTSGGTAALGCLVKDYFPEPVTVSWNSGALTSGVHTFPAVLQSSGLYSLSSVVTVPSSSLGTQTYICNVNHKPSNTKVDKKVEPKSCDKTHTCPPCPAPEAAGGPSVFLFPPKPKDTLMISRTPEVTCVVVDVSHEDPEVKFNWYVDGVEVHNAKTKPREEQYASTYRVVSVLTVLHQDWLNGKEYKCKVSNKALPAPIEKTISKAKGQPREPQVYTLPPSRCELTKNQVSLSCAVKGFYPSDIAVEWESNGQPENNYKTTPPVLDSDGSFFLVSKLTVDKSRWQQGNVFSCSVMHEALHNHYTQKSLSLSPDYKDDDDK
chain: EPKSSDKTHTCPPCPAPELLGGPSVFLFPPKPKDTLMISRTPEVTCVVVDVSHEDPEVKFNWYVDGVEVHNAKTKPREEQYNSTYRVVSVLTVLHQDWLNGKEYKCKVSNKALPAPIEKTISKAKGQPREPQVCTLPPSRDELTKNQVSLWCLVKGFYPSDIAVEWESNGQPENNYKTTPPVLDSDGSFFLYSKLTVDKSRWQQGNVFSCSVMHEALHNRYTQKSLSLSP
light: DIVMTQSPLSLPVTPGEPASISCRSSQSLVHSNRNTYLHWYQQKPGQAPRLLIYKVSNRFSGVPDRFSGSGSGTDFTLKISRVEAEDVGVYYCGQGTQVPYTFGQGTKLEIKRTVAAPSVFIFPPSDEQLKSGTASVVCLLNNFYPREAKVQWKVDNALQSGNSQESVTEQDSKDSTYSLSSTLTLSKADYEKHKVYACEVTHQGLSSPVTKSFNRGEC
B4: CE115HA000 G98A one-arm antibody (antibody, human IgG1, kappa, L234A L235A, N297A, name in Kabat numbering)
heavy: QVQLVESGGGVVQPGRSLRLSCAASGFTFSNAWMHWVRQAPGKGLEWVAQIKAKSNNYATYYAESVKGRFTISRDDSKNSLYLQMNSLKTEDTAVYYCRYVHYAAYYGVDAWGQGTTVTVSSASTKGPSVFPLAPSSKSTSGGTAALGCLVKDYFPEPVTVSWNSGALTSGVHTFPAVLQSSGLYSLSSVVTVPSSSLGTQTYICNVNHKPSNTKVDKKVEPKSCDKTHTCPPCPAPEAAGGPSVFLFPPKPKDTLMISRTPEVTCVVVDVSHEDPEVKFNWYVDGVEVHNAKTKPREEQYASTYRVVSVLTVLHQDWLNGKEYKCKVSNKALPAPIEKTISKAKGQPREPQVYTLPPSRCELTKNQVSLSCAVKGFYPSDIAVEWESNGQPENNYKTTPPVLDSDGSFFLVSKLTVDKSRWQQGNVFSCSVMHEALHNHYTQKSLSLSPDYKDDDDK
chain: EPKSSDKTHTCPPCPAPELLGGPSVFLFPPKPKDTLMISRTPEVTCVVVDVSHEDPEVKFNWYVDGVEVHNAKTKPREEQYNSTYRVVSVLTVLHQDWLNGKEYKCKVSNKALPAPIEKTISKAKGQPREPQVCTLPPSRDELTKNQVSLWCLVKGFYPSDIAVEWESNGQPENNYKTTPPVLDSDGSFFLYSKLTVDKSRWQQGNVFSCSVMHEALHNRYTQKSLSLSP
light: DIVMTQSPLSLPVTPGEPASISCRSSQSLVHSNRNTYLHWYQQKPGQAPRLLIYKVSNRFSGVPDRFSGSGSGTDFTLKISRVEAEDVGVYYCGQGTQVPYTFGQGTKLEIKRTVAAPSVFIFPPSDEQLKSGTASVVCLLNNFYPREAKVQWKVDNALQSGNSQESVTEQDSKDSTYSLSSTLTLSKADYEKHKVYACEVTHQGLSSPVTKSFNRGEC
B5: CE115HA000 G98H one-arm antibody (antibody, human IgG1, kappa, L234A L235A, N297A, name in Kabat numbering)
heavy: QVQLVESGGGVVQPGRSLRLSCAASGFTFSNAWMHWVRQAPGKGLEWVAQIKAKSNNYATYYAESVKGRFTISRDDSKNSLYLQMNSLKTEDTAVYYCRYVHYHAYYGVDAWGQGTTVTVSSASTKGPSVFPLAPSSKSTSGGTAALGCLVKDYFPEPVTVSWNSGALTSGVHTFPAVLQSSGLYSLSSVVTVPSSSLGTQTYICNVNHKPSNTKVDKKVEPKSCDKTHTCPPCPAPEAAGGPSVFLFPPKPKDTLMISRTPEVTCVVVDVSHEDPEVKFNWYVDGVEVHNAKTKPREEQYASTYRVVSVLTVLHQDWLNGKEYKCKVSNKALPAPIEKTISKAKGQPREPQVYTLPPSRCELTKNQVSLSCAVKGFYPSDIAVEWESNGQPENNYKTTPPVLDSDGSFFLVSKLTVDKSRWQQGNVFSCSVMHEALHNHYTQKSLSLSPDYKDDDDK
chain: EPKSSDKTHTCPPCPAPELLGGPSVFLFPPKPKDTLMISRTPEVTCVVVDVSHEDPEVKFNWYVDGVEVHNAKTKPREEQYNSTYRVVSVLTVLHQDWLNGKEYKCKVSNKALPAPIEKTISKAKGQPREPQVCTLPPSRDELTKNQVSLWCLVKGFYPSDIAVEWESNGQPENNYKTTPPVLDSDGSFFLYSKLTVDKSRWQQGNVFSCSVMHEALHNRYTQKSLSLSP
light: DIVMTQSPLSLPVTPGEPASISCRSSQSLVHSNRNTYLHWYQQKPGQAPRLLIYKVSNRFSGVPDRFSGSGSGTDFTLKISRVEAEDVGVYYCGQGTQVPYTFGQGTKLEIKRTVAAPSVFIFPPSDEQLKSGTASVVCLLNNFYPREAKVQWKVDNALQSGNSQESVTEQDSKDSTYSLSSTLTLSKADYEKHKVYACEVTHQGLSSPVTKSFNRGEC
B6: CE115HA000 G98D one-arm antibody (antibody, human IgG1, kappa, L234A L235A, N297A, name in Kabat numbering)
heavy: QVQLVESGGGVVQPGRSLRLSCAASGFTFSNAWMHWVRQAPGKGLEWVAQIKAKSNNYATYYAESVKGRFTISRDDSKNSLYLQMNSLKTEDTAVYYCRYVHYDAYYGVDAWGQGTTVTVSSASTKGPSVFPLAPSSKSTSGGTAALGCLVKDYFPEPVTVSWNSGALTSGVHTFPAVLQSSGLYSLSSVVTVPSSSLGTQTYICNVNHKPSNTKVDKKVEPKSCDKTHTCPPCPAPEAAGGPSVFLFPPKPKDTLMISRTPEVTCVVVDVSHEDPEVKFNWYVDGVEVHNAKTKPREEQYASTYRVVSVLTVLHQDWLNGKEYKCKVSNKALPAPIEKTISKAKGQPREPQVYTLPPSRCELTKNQVSLSCAVKGFYPSDIAVEWESNGQPENNYKTTPPVLDSDGSFFLVSKLTVDKSRWQQGNVFSCSVMHEALHNHYTQKSLSLSPDYKDDDDK
chain: EPKSSDKTHTCPPCPAPELLGGPSVFLFPPKPKDTLMISRTPEVTCVVVDVSHEDPEVKFNWYVDGVEVHNAKTKPREEQYNSTYRVVSVLTVLHQDWLNGKEYKCKVSNKALPAPIEKTISKAKGQPREPQVCTLPPSRDELTKNQVSLWCLVKGFYPSDIAVEWESNGQPENNYKTTPPVLDSDGSFFLYSKLTVDKSRWQQGNVFSCSVMHEALHNRYTQKSLSLSP
light: DIVMTQSPLSLPVTPGEPASISCRSSQSLVHSNRNTYLHWYQQKPGQAPRLLIYKVSNRFSGVPDRFSGSGSGTDFTLKISRVEAEDVGVYYCGQGTQVPYTFGQGTKLEIKRTVAAPSVFIFPPSDEQLKSGTASVVCLLNNFYPREAKVQWKVDNALQSGNSQESVTEQDSKDSTYSLSSTLTLSKADYEKHKVYACEVTHQGLSSPVTKSFNRGEC

This is an account of results in patent US20210388087A1 (Chugai, published 2021).

T1 sequence (P07766 23-126): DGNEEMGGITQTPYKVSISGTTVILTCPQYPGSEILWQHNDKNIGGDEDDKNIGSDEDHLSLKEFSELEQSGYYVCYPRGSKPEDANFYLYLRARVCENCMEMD

The assay addresses T1, CD3 epsilon homodimer protein (UniProt P07766 23-126).
T1 construct: immobilized on Sensor chip CM4 by amine coupling; also called CD3 (CD3 epsilon)
In words: SPR (Biacore T200), CD3 epsilon homodimer on CM4 chip, one-arm antibody as analyte, 25 C.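 Further: homodimer attached to the sensor surface via amine coupling, HBS-EP+ used as running buffer during binding runs.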
For B1, the “ratio of amounts bound (altered form / CE115HA000)” value stood at 0.76.

For the molecule B2, the “ratio of amounts bound (altered form / CE115HA000)” value is 0.78.

For B3, the “ratio of amounts bound (altered form / CE115HA000)” value was 2.83.

B4: the “ratio of amounts bound (altered form / CE115HA000)” value is 1.1.

B5: the “ratio of amounts bound (altered form / CE115HA000)” value turned out to be 1.58.

In the case of B6, the “ratio of amounts bound (altered form / CE115HA000)” value is 0.26.
